Reference: patent US20240279341A1 (Alector, published 2024)

T1: recombinant murine MerTK extracellular domain (mouse, UniProt Q60805 19-497)
T1 construct: also called moMerTK; mouse MerTK; not shown: PolyHis tag or TEVS/Thrombin/murine IgG2a Fc tag (a commercial human IgG1 Fc fusion is also mentioned); which form was t
T1 sequence: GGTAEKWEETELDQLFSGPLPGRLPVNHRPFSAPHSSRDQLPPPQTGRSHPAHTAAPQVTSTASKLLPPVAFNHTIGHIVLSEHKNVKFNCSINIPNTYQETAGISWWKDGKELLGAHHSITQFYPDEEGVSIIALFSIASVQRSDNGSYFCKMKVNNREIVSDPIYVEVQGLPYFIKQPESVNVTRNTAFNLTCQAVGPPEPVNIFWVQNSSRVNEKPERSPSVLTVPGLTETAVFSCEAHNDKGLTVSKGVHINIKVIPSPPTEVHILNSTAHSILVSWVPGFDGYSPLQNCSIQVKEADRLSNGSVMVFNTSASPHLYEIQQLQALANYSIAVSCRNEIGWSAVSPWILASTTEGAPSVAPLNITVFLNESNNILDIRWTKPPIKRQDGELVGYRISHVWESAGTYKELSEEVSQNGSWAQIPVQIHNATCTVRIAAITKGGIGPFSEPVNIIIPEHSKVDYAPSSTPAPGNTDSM

T2: human MerTK overexpressed on CHO cells (human, UniProt Q12866 21-999)
T2 construct: also called CHO-huMerTK OE; CHO-human MerTK OE cells
T2 sequence: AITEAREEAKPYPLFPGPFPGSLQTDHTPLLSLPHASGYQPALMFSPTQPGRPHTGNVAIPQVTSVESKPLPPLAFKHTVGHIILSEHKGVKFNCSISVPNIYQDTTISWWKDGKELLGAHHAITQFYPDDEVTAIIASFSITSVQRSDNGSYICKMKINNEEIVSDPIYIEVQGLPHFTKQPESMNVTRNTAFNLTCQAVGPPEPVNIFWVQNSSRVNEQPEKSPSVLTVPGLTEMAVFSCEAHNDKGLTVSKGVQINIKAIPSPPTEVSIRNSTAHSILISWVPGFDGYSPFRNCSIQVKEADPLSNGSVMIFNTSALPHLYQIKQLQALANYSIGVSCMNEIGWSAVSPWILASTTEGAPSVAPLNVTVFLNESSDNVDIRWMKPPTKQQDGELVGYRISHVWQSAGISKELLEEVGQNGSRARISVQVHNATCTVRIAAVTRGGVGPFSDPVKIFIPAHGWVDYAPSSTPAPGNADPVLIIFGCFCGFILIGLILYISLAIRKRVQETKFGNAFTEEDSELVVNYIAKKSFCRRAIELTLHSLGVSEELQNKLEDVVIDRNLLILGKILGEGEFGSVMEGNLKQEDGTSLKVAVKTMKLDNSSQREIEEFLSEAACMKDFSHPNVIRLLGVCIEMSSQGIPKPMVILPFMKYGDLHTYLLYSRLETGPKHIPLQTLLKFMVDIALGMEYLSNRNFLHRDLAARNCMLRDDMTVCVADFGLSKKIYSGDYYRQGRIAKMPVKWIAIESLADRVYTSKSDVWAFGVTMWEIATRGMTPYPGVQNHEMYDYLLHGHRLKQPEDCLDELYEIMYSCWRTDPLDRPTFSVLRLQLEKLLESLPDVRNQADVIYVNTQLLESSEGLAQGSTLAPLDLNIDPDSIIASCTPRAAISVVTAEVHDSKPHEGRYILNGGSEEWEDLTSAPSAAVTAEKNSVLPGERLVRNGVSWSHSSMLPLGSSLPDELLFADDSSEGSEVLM

T3: human MerTK on M2c-differentiated human macrophages (human, UniProt Q12866 21-999)
T3 sequence: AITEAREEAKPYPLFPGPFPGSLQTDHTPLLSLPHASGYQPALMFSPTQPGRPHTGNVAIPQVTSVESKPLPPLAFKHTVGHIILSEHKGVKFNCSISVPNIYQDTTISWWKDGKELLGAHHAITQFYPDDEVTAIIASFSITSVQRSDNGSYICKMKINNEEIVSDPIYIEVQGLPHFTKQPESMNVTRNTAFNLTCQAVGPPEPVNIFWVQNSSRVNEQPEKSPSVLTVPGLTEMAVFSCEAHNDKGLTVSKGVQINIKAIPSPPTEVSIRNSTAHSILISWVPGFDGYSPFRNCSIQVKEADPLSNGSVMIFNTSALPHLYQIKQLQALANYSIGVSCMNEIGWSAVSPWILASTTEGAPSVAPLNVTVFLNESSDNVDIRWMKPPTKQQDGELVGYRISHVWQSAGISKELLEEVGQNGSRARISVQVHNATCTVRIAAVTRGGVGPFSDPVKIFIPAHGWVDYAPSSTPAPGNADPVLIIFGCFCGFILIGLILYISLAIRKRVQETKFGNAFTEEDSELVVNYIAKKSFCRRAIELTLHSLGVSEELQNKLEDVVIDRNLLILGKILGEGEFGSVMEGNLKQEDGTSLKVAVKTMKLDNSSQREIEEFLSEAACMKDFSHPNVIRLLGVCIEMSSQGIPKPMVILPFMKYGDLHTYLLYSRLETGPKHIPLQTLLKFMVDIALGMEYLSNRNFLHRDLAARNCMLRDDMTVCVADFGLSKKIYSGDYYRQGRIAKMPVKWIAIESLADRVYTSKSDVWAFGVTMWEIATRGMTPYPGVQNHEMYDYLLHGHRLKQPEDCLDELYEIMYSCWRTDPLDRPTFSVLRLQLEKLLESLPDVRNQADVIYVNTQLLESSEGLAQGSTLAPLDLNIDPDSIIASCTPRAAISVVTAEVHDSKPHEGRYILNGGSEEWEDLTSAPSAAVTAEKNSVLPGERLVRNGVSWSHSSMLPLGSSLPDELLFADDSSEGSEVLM


How the values were obtained:
[1] = target: T1, recombinant murine MerTK extracellular …; test: SPR (Carterra LSA), antibody immobilized, MerTK ECD as analyte; estimate, fits not ideal for a 1:1 model
Experimental: (§1) Binding kinetics of bispecific anti-MerTK:anti-PDL1 antibodies of the present disclosure to human, cyno, and murine MerTK were evaluated using a Carterra LSA instrument. […] A HC30 sensor chip (Carterra) was activated using the single channel flow cell with a 7-minute injection of a 1:1:1 mixture of 100 mM MES pH 5.5, 100 mM sulfo-NHS, 400 mM EDC (all reconstituted in MES pH 5.5; 100 μl of each mixed in vial immediately before running assay). After switching to the multi-channel array flow cell, the antibodies were injected over the activated chip in a 96-spot array for 15 minutes. A duplicate injection of the antibodies on a second block of the chip was spotted as before. The remaining unconjugated active groups on the chip were then blocked by injecting 1M Ethanolamine pH 8.5 (Carterra) for 7 minutes using the single channel flow cell.
(§2) After priming with running buffer (HBS-TE, Carterra) with 0.5 mg/ml BSA (Sigma), the immobilized anti-MerTK antibodies were tested for their ability to bind to several forms of recombinant MerTK extracellular domain, including that of human, cynomolgus, and mouse orthologs as described above. Estimates of affinity were generated by injecting each analyte over the entire antibody array using the single channel flow cell. […] Dissociation was followed for 300 seconds before regenerating after each injection with 2×30 seconds of 10 mM Glycine pH2.5. Three buffer blanks were run between each series (one species per series). After all concentrations of all three species of MerTK were injected, a duplicate set of injections was performed, so that each concentration for all three species was injected in widely spaced duplicates. Data were processed and analyzed using NextGenKIT high-throughput kinetics analysis software (Carterra).

[2] = target: T2, human MerTK overexpressed on CHO cells; test: flow cytometry on CHO-huMerTK OE cells, Dylight650-conjugated antibody; average FACS Kd from Prism fit of MFI
Text: (§3) Human macrophages were differentiated from human monocytes for 7 days in the presence of human M-CSF, resulting in M2c-differentiated human macrophages. After 7 days, the differentiated human macrophages were harvested (by scraping), resuspended in PBS, and plated on 96-well plates for use. CHO cells overexpressing human MerTK (CHO-huMerTK OE), CHO cells overexpressing human PDL1 (CHO-huPDL1 OE), and M2c-differentiated human macrophages were stained with Dylight650-conjugated bispecific anti-MerTK:anti-PDL1 antibodies, or bivalent anti-MerTK antibodies for 30 min on ice. A range of antibody concentrations were used in these studies to obtain binding curves. All antibodies tested in these studies were IgG1 having Fc regions comprising LALAPS mutations. Cells were fixed and then acquired on a BD FACS Canto II cytometer. The mean fluorescence intensity (MFI) was calculated using FlowJo software and Kd value was calculated using Prism software.

[3] = target: T3, human MerTK on M2c-differentiated human …; test: cell-based or functional assay
[4] = target: T3, human MerTK on M2c-differentiated human …; test: flow cytometry on M2c-differentiated human macrophages, Dylight650-conjugated antibody; average FACS Kd from Prism fit of MFI
Text: as §3

[5] = target: T1, recombinant murine MerTK extracellular …; test: SPR (Carterra LSA), antibody immobilized, MerTK ECD as analyte
Experimental: as §1, §2

Row | Binder | Kd [1] | Kd [2] | Average Efferocytosis blocking IC50 [3] | Kd [4] | binding result [5]
1 | monovalent anti-MerTK antibody MTK-33.11 (antibody, V domains shown) VH: QVQLVQSGAEVKKPGASVKVSCKASGYTFTSYWMHWVRQAPGQGLEWIGVIDPSDNYINYNQKFQGRVTMTRDTSTSTVYMELSSLRSEDTAVYYCAREAWTRGYFDYWGQGTLVTVSS VL: DIQMTQSPSSLSASVGDRVTITCQASRSVRNTVAWYQQKPGKAPKLLIYYASNRYTGVPSRFSGSGSGTDFTFTISSLQPEDIATYYCQQDYRSPFTFGQGTKLEIK | 40 nM | 4.97 nM | 4.45 nM | 9.96 nM | –
2 | bispecific anti-MerTK MTK-33.11:anti-PDL1 antibody (bispecific antibody, V domains shown) VH 1: QVQLVQSGAEVKKPGASVKVSCKASGYTFTSYWMHWVRQAPGQGLEWIGVIDPSDNYINYNQKFQGRVTMTRDTSTSTVYMELSSLRSEDTAVYYCAREAWTRGYFDYWGQGTLVTVSS VL 1: DIQMTQSPSSLSASVGDRVTITCQASRSVRNTVAWYQQKPGKAPKLLIYYASNRYTGVPSRFSGSGSGTDFTFTISSLQPEDIATYYCQQDYRSPFTFGQGTKLEIK VH 2: not shown VL 2: not shown | 40 nM | 3.25 nM | 4.42 nM | – | –
3 | bivalent anti-MerTK antibody MTK-33.11 (full IgG) (antibody, V domains shown) VH: QVQLVQSGAEVKKPGASVKVSCKASGYTFTSYWMHWVRQAPGQGLEWIGVIDPSDNYINYNQKFQGRVTMTRDTSTSTVYMELSSLRSEDTAVYYCAREAWTRGYFDYWGQGTLVTVSS VL: DIQMTQSPSSLSASVGDRVTITCQASRSVRNTVAWYQQKPGKAPKLLIYYASNRYTGVPSRFSGSGSGTDFTFTISSLQPEDIATYYCQQDYRSPFTFGQGTKLEIKR | 50 nM | 0.439 nM | 0.341 nM | 2 nM | –

More lines, now with the values ahead:

Row | Kd [1] | Kd [2] | Average Efferocytosis blocking IC50 [3] | Kd [4] | binding result [5] | Binder
4 | – | 40.5 nM | 37.9 nM | 77.8 nM | no binding | monovalent anti-MerTK antibody MTK-16.2 (antibody, V domains shown) VH: QVQLVQSGSELKKPGASVKVSCKASGYTFTNHGMNWVRQAPGQGLEWMGWINTYTGEPTYADDFKGRFVFSLDTSVSTAYLQISSLKAEDTAVYYCARKGVTAARYFDYWGQGTLVTVSS VL: DIQMTQSPSSLSASVGDRVTITCRASQNVRTAVAWYQQKPGKAPKRLIYLASNRHTGVPSRFSGSGSGTEFTLTISNLQPEDFATYYCLQHWNYPLTFGGGTKLEIK
5 | – | 48.3 nM | – | – | no binding | bispecific anti-MerTK MTK-16.2:anti-PDL1 antibody (bispecific antibody, V domains shown) VH 1: QVQLVQSGSELKKPGASVKVSCKASGYTFTNHGMNWVRQAPGQGLEWMGWINTYTGEPTYADDFKGRFVFSLDTSVSTAYLQISSLKAEDTAVYYCARKGVTAARYFDYWGQGTLVTVSS VL 1: DIQMTQSPSSLSASVGDRVTITCRASQNVRTAVAWYQQKPGKAPKRLIYLASNRHTGVPSRFSGSGSGTEFTLTISNLQPEDFATYYCLQHWNYPLTFGGGTKLEIK VH 2: not shown VL 2: not shown
6 | – | 42.5 nM | 0.436 nM | 51.9 nM | no binding | bivalent anti-MerTK antibody MTK-16.2 (full IgG) (antibody, V domains shown) VH: QVQLVQSGSELKKPGASVKVSCKASGYTFTNHGMNWVRQAPGQGLEWMGWINTYTGEPTYADDFKGRFVFSLDTSVSTAYLQISSLKAEDTAVYYCARKGVTAARYFDYWGQGTLVTVSS VL: DIQMTQSPSSLSASVGDRVTITCRASQNVRTAVAWYQQKPGKAPKRLIYLASNRHTGVPSRFSGSGSGTEFTLTISNLQPEDFATYYCLQHWNYPLTFGGGTKLEIKR
